Assay results reported in publication doi:10.1101/2025.10.01.679806 (bioRxiv, 2025).
Values joined by “and” are separate entries in the source; they are usually repeats but may differ in a detail not shown here. Equal values may be shown once.

Key:
[1] = target: Bpa 31-146 (Mycobacterium tuberculosis) (UniProt P9WKX3); experiment: NMR titration
[2] = target: Bpa 31-146 (Mycobacterium tuberculosis) (UniProt P9WKX3); experiment: NMR CPMG relaxation dispersion
methyl-TROSY NMR = target: the molecule itself; experiment: methyl-TROSY NMR
native MS = target: the molecule itself; experiment: native MS
[3] = target: the molecule itself; experiment: NMR pulsed-field gradient diffusion

## DNA-binding domain of human telomeric repeat-binding factor 1 (residues 378-430) (domain or fragment)
[1]
  Kd: < 200 nM and 1500 nM
  stoichiometry N (hTRF1 molecules per Bpa dodecamer): 3
[2]
  exchange rate between Bpa free and bound with hTRF1 (CPMG): > 1500 s⁻¹

B1: Bpa 31-146 (domain or fragment)
chain: DSDESSLTDLVEQPAKVMRIGTMIKQLLEEVRAAPLDEASRNRLRDIHATSIRELEDGLAPELREELDRLTLPFNEDAVPSDAELRIAQAQLVGWLEGLFHGIQTALFAQQMAARA
methyl-TROSY NMR
  stoichiometry N: 12

B2: wild-type (WT) Mycobacterium tuberculosis bacterial proteasome activator Bpa (Rv3780) (natural protein)
chain: MVIGLSTGSDDDDVEVIGGVDPRLIAVQENDSDESSLTDLVEQPAKVMRIGTMIKQLLEEVRAAPLDEASRNRLRDIHATSIRELEDGLAPELREELDRLTLPFNEDAVPSDAELRIAQAQLVGWLEGLFHGIQTALFAQQMAARAQLQQMRQGALPPGVGKSGQHGHGTGQYL
Native MS
  stoichiometry N: 2
[3]
  stoichiometry N: 4
